According to patent publication USRE49847 (dated 2024):
Numbering of substitutions follows the chain as printed. Values belong to the binder of their own block, whether it stands above or below them.

Assays:
[1] = biological target: T1, soluble CD22-Fc (R&D Systems) (UniProt P20273 20-687); assay: FACS surface staining of transduced JNL cells with CD22-Fc
T1 construct: Bought reagent used to stain CD22 CARs; not shown: Fc part; detected with anti-human IgG Fc-gamma secondary
T1 sequence (looked up): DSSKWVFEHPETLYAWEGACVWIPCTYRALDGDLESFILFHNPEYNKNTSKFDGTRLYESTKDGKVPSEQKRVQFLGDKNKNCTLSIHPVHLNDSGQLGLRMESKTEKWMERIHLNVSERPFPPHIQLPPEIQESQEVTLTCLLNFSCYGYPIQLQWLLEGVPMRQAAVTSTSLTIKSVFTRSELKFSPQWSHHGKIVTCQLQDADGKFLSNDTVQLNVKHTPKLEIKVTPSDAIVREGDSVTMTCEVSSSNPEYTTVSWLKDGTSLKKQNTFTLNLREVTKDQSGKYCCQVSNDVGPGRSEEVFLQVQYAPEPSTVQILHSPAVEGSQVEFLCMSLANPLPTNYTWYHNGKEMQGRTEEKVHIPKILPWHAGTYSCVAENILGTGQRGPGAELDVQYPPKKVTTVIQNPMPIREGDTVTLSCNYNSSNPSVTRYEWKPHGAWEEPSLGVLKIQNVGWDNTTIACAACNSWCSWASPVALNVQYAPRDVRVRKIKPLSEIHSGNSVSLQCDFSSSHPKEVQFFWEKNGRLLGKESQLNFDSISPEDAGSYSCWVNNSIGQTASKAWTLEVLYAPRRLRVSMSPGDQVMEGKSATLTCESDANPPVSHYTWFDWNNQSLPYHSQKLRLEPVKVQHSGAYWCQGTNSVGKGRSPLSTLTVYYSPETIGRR

[2] = biological target: T1, soluble CD22-Fc (R&D Systems); assay: flow cytometry, soluble CD22-Fc plus anti-human Fc-PE on CAR-transduced primary T cells (FIG. 4)

B1: control anti-CD22 CAR CG#c176 (other)
chain: QSALTQPASASGSPGQSVTISCTGTSSDVGGYNYVSWYQQHPGKAPKLMIYDVSNRPSGVSNRFSGSKSGNTASLTISGLQAEDEADYYCSSYTSSSTLYVFGTGTQLTVLGGGGSEVQLQQSGPGLVKPSQTLSLTCAISGDSMLSNSDTWNWIRQSPSRGLEWLGRTYHRSTWYDDYASSVRGRVSINVDTSKNQYSLQLNAVTPEDTGVYYCARVRLQDGNSWSDAFDVWGQGTMVTVSS
notes: not shown: hinge, transmembrane, 4-1BB and CD3zeta parts of the CAR
- binding result [1]: binds

B2: tandem CD22/CD19 CAR construct 187 (other)
chain: QSALTQPASASGSPGQSVTISCTGTSSDVGGYNYVSWYQQHPGKAPKLMIYDVSNRPSGVSNRFSGSKSGNTASLTISGLQAEDEADYYCSSYTSSSTLYVFGTGTQLTVLGGGGSEVQLQQSGPGLVKPSQTLSLTCAISGDSMLSNSDTWNWIRQSPSRGLEWLGRTYHRSTWYDDYASSVRGRVSINVDTSKNQYSLQLNAVTPEDTGVYYCARVRLQDGNSWSDAFDVWGQGTMVTVSSLAEAAAKEIVMTQSPATLSLSPGERATLSCRASQDISKYLNWYQQKPGQAPRLLIYHTSRLHSGIPARFSGSGSGTDYTLTISSLQPEDFAVYFCQQGNTLPYTFGQGTKLEIKGGGGSGGGGSGGGGSQVQLQESGPGLVKPSETLSLTCTVSGVSLPDYGVSWIRQPPGKGLEWIGVIWGSETTYYQSSLKSRVTISKDNSKNQVSLKLSSVTAADTAVYYCAKHYYYGGSYAMDYWGQGTLVTVSSTTTPAPRPPTPAPTIASQPLSLRPEACRPAAGGAVHTRGLDFACDIYIWAPLAGTCGVLLLSLVITLYCKRGRKKLLYIFKQPFMRPVQTTQEEDGCSCRFPEEEEGGCELRVKFSRSADAPAYQQGQNQLYNELNLGRREEYDVLDKRRGRDPEMGGKPRRKNPQEGLYNELQKDKMAEAYSEIGMKGERRRGKGHDGLYQGLSTATKDTYDALHMQALPPR
notes: Distal anti-CD22 scFv L/H short linker, LAEAAAK, proximal anti-CD19 scFv; leader 1-21 left out; also called CG#c187; c187
- binding result [1]: binds

B7: CD22-62 CAR (other)
chain: EVQLQQSGPGLVKPSQTLSLTCAISGDSVLSNSDTWNWIRQSPSRGLEWLGRTYHRSTWYDDYASSVRGRVSINVDTSKNQYSLQLNAVTPEDTGVYYCARDRLQDGNSWSDAFDVWGQGTMVTVSSGGGGSGGGGSGGGGSQSALTQPASVSGSPGQSITISCTGTSSDVGGYNYVSWYQQHPGKAPKLMIYDVSNRPSGVSNRFSGSKSGNTASLTISGLQAEDEADYYCSSYTSSSTLYVFGTGTKVTVL
notes: CAR on primary human T cells; not shown: hinge, transmembrane, 4-1BB and CD3zeta parts of the CAR
- MFI [2]: > 20000

B8: CD22-59 CAR (other)
chain: EVQLQQSGPGLVKPSQTLSLTCAISGDSVLSNSDTWNWIRQSPSRGLEWLGRTYHRSTWYDDYASSVRGRVSINVDTSKNQYSLQLNAVTPEDTGVYYCARDRLQDGNSWSDAFDVWGQGTMVTVSSGGGGSGGGGSGGGGSQSALTQPASVSGSPGQSITISCTGSSSDIGGFNYVSWYQQHAGEAPKLMIYEVTNRPSGVSDRFSGSKSDNTASLTISGLQAEDEADYYCSSYASGSPLYVFGTGTKVTVL
notes: as for B7
- MFI [2]: > 20000

B9: CD22-60 CAR (other)
chain: B7 chain with G139S, I162F, V171I, D194E, S209T, V250L
notes: as for B7
- MFI [2]: > 20000

Results, then the binder that gave them:

- binding result [1]: binds
B3: tandem CD22/CD19 CAR construct 186 (other)
chain: QSALTQPASASGSPGQSVTISCTGTSSDVGGYNYVSWYQQHPGKAPKLMIYDVSNRPSGVSNRFSGSKSGNTASLTISGLQAEDEADYYCSSYTSSSTLYVFGTGTQLTVLGGGGSGGGGSGGGGSEVQLQQSGPGLVKPSQTLSLTCAISGDSMLSNSDTWNWIRQSPSRGLEWLGRTYHRSTWYDDYASSVRGRVSINVDTSKNQYSLQLNAVTPEDTGVYYCARVRLQDGNSWSDAFDVWGQGTMVTVSSGGGGSEIVMTQSPATLSLSPGERATLSCRASQDISKYLNWYQQKPGQAPRLLIYHTSRLHSGIPARFSGSGSGTDYTLTISSLQPEDFAVYFCQQGNTLPYTFGQGTKLEIKGGGGSGGGGSGGGGSQVQLQESGPGLVKPSETLSLTCTVSGVSLPDYGVSWIRQPPGKGLEWIGVIWGSETTYYQSSLKSRVTISKDNSKNQVSLKLSSVTAADTAVYYCAKHYYYGGSYAMDYWGQGTLVTVSSTTTPAPRPPTPAPTIASQPLSLRPEACRPAAGGAVHTRGLDFACDIYIWAPLAGTCGVLLLSLVITLYCKRGRKKLLYIFKQPFMRPVQTTQEEDGCSCRFPEEEEGGCELRVKFSRSADAPAYQQGQNQLYNELNLGRREEYDVLDKRRGRDPEMGGKPRRKNPQEGLYNELQKDKMAEAYSEIGMKGERRRGKGHDGLYQGLSTATKDTYDALHMQALPPR
notes: Distal anti-CD22 scFv L/H, GGGGS, proximal anti-CD19 scFv; leader 1-21 left out; also called CG#c186; c186

- binding result [1]: binds
B4: control anti-CD22 CAR CG#c175 (other)
chain: QSALTQPASASGSPGQSVTISCTGTSSDVGGYNYVSWYQQHPGKAPKLMIYDVSNRPSGVSNRFSGSKSGNTASLTISGLQAEDEADYYCSSYTSSSTLYVFGTGTQLTVLGGGGSGGGGSGGGGSEVQLQQSGPGLVKPSQTLSLTCAISGDSMLSNSDTWNWIRQSPSRGLEWLGRTYHRSTWYDDYASSVRGRVSINVDTSKNQYSLQLNAVTPEDTGVYYCARVRLQDGNSWSDAFDVWGQGTMVTVSS
notes: as for B1

- binding result [1]: binds
B5: tandem CD22/CD19 CAR construct 188 (other)
chain: QSALTQPASASGSPGQSVTISCTGTSSDVGGYNYVSWYQQHPGKAPKLMIYDVSNRPSGVSNRFSGSKSGNTASLTISGLQAEDEADYYCSSYTSSSTLYVFGTGTQLTVLGGGGSEVQLQQSGPGLVKPSQTLSLTCAISGDSMLSNSDTWNWIRQSPSRGLEWLGRTYHRSTWYDDYASSVRGRVSINVDTSKNQYSLQLNAVTPEDTGVYYCARVRLQDGNSWSDAFDVWGQGTMVTVSSGGGGSEIVMTQSPATLSLSPGERATLSCRASQDISKYLNWYQQKPGQAPRLLIYHTSRLHSGIPARFSGSGSGTDYTLTISSLQPEDFAVYFCQQGNTLPYTFGQGTKLEIKGGGGSGGGGSGGGGSQVQLQESGPGLVKPSETLSLTCTVSGVSLPDYGVSWIRQPPGKGLEWIGVIWGSETTYYQSSLKSRVTISKDNSKNQVSLKLSSVTAADTAVYYCAKHYYYGGSYAMDYWGQGTLVTVSSTTTPAPRPPTPAPTIASQPLSLRPEACRPAAGGAVHTRGLDFACDIYIWAPLAGTCGVLLLSLVITLYCKRGRKKLLYIFKQPFMRPVQTTQEEDGCSCRFPEEEEGGCELRVKFSRSADAPAYQQGQNQLYNELNLGRREEYDVLDKRRGRDPEMGGKPRRKNPQEGLYNELQKDKMAEAYSEIGMKGERRRGKGHDGLYQGLSTATKDTYDALHMQALPPR
notes: Distal anti-CD22 scFv L/H short linker, GGGGS, proximal anti-CD19 scFv; leader 1-21 left out; also called CG#c188; c188

- binding result [1]: binds
B6: tandem CD22/CD19 CAR construct 184 (other)
chain: EVQLQQSGPGLVKPSQTLSLTCAISGDSMLSNSDTWNWIRQSPSRGLEWLGRTYHRSTWYDDYASSVRGRVSINVDTSKNQYSLQLNAVTPEDTGVYYCARVRLQDGNSWSDAFDVWGQGTMVTVSSGGGGSQSALTQPASASGSPGQSVTISCTGTSSDVGGYNYVSWYQQHPGKAPKLMIYDVSNRPSGVSNRFSGSKSGNTASLTISGLQAEDEADYYCSSYTSSSTLYVFGTGTQLTVLGGGGSEIVMTQSPATLSLSPGERATLSCRASQDISKYLNWYQQKPGQAPRLLIYHTSRLHSGIPARFSGSGSGTDYTLTISSLQPEDFAVYFCQQGNTLPYTFGQGTKLEIKGGGGSGGGGSGGGGSQVQLQESGPGLVKPSETLSLTCTVSGVSLPDYGVSWIRQPPGKGLEWIGVIWGSETTYYQSSLKSRVTISKDNSKNQVSLKLSSVTAADTAVYYCAKHYYYGGSYAMDYWGQGTLVTVSSTTTPAPRPPTPAPTIASQPLSLRPEACRPAAGGAVHTRGLDFACDIYIWAPLAGTCGVLLLSLVITLYCKRGRKKLLYIFKQPFMRPVQTTQEEDGCSCRFPEEEEGGCELRVKFSRSADAPAYQQGQNQLYNELNLGRREEYDVLDKRRGRDPEMGGKPRRKNPQEGLYNELQKDKMAEAYSEIGMKGERRRGKGHDGLYQGLSTATKDTYDALHMQALPPR
notes: Distal anti-CD22 scFv H/L short linker, GGGGS, proximal anti-CD19 scFv; leader 1-21 left out; also called CG#c184; c184

- binding result [1]: binds
B10: tandem CD22/CD19 CAR construct 185 (other)
chain: QSALTQPASASGSPGQSVTISCTGTSSDVGGYNYVSWYQQHPGKAPKLMIYDVSNRPSGVSNRFSGSKSGNTASLTISGLQAEDEADYYCSSYTSSSTLYVFGTGTQLTVLGGGGSGGGGSGGGGSEVQLQQSGPGLVKPSQTLSLTCAISGDSMLSNSDTWNWIRQSPSRGLEWLGRTYHRSTWYDDYASSVRGRVSINVDTSKNQYSLQLNAVTPEDTGVYYCARVRLQDGNSWSDAFDVWGQGTMVTVSSLAEAAAKEIVMTQSPATLSLSPGERATLSCRASQDISKYLNWYQQKPGQAPRLLIYHTSRLHSGIPARFSGSGSGTDYTLTISSLQPEDFAVYFCQQGNTLPYTFGQGTKLEIKGGGGSGGGGSGGGGSQVQLQESGPGLVKPSETLSLTCTVSGVSLPDYGVSWIRQPPGKGLEWIGVIWGSETTYYQSSLKSRVTISKDNSKNQVSLKLSSVTAADTAVYYCAKHYYYGGSYAMDYWGQGTLVTVSSTTTPAPRPPTPAPTIASQPLSLRPEACRPAAGGAVHTRGLDFACDIYIWAPLAGTCGVLLLSLVITLYCKRGRKKLLYIFKQPFMRPVQTTQEEDGCSCRFPEEEEGGCELRVKFSRSADAPAYQQGQNQLYNELNLGRREEYDVLDKRRGRDPEMGGKPRRKNPQEGLYNELQKDKMAEAYSEIGMKGERRRGKGHDGLYQGLSTATKDTYDALHMQALPPR
notes: Distal anti-CD22 scFv L/H, LAEAAAK, proximal anti-CD19 scFv; leader 1-21 left out; also called CG#c185; c185

- binding result [1]: binds
B11: control anti-CD22 CAR CG#c170 (other)
chain: EVQLQQSGPGLVKPSQTLSLTCAISGDSMLSNSDTWNWIRQSPSRGLEWLGRTYHRSTWYDDYASSVRGRVSINVDTSKNQYSLQLNAVTPEDTGVYYCARVRLQDGNSWSDAFDVWGQGTMVTVSSGGGGSQSALTQPASASGSPGQSVTISCTGTSSDVGGYNYVSWYQQHPGKAPKLMIYDVSNRPSGVSNRFSGSKSGNTASLTISGLQAEDEADYYCSSYTSSSTLYVFGTGTQLTVL
notes: the tie is by that description, not by a printed label; not shown: hinge, transmembrane, 4-1BB and CD3zeta parts of the CAR
